The results in this text go back to paper PMC7617670, “Activity Regulation of a Glutamine Amidotransferase Bienzyme Complex by Substrate-Induced Subunit Interface Expansion” (ACS catalysis, 2025).

Substitutions are numbered along the chain they refer to. In names and notes the source's numbering stands.

One test deals with T1, PabB variant bY210F (Escherichia coli, UniProt P05041 1-453, bY210F).
T1 construct: PabB, synthase subunit of ADCS, E. coli; construct as m2 with one exchange; Made by QuikChange mutagenesis from the construct of m2; source: E. coli BL21-Gold (DE3), purified (Ni-IMAC, preparative gel filtration)
T1 sequence: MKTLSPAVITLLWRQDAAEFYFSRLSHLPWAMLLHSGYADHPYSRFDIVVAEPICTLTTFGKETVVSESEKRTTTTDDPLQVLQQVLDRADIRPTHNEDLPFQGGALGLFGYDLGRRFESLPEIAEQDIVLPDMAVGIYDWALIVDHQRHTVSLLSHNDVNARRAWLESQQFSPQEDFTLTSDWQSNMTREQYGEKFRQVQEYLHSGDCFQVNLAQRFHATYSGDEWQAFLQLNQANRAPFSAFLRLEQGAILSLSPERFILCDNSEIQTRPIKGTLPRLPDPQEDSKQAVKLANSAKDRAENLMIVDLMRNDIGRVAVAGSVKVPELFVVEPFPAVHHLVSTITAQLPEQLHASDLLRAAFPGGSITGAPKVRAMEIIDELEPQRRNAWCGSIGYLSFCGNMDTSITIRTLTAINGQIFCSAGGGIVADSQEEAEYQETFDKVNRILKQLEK
Put plainly: ITC; 250 μM PabB titrated into 25 μM PabA in the cell; 25 °C; 50 mM Tris/HCl pH 7.5, 50 mM KCl, 5 mM MgCl2; without Cho and Gln; one set of sites. The following applies: both partners purified. A general note: Isothermal titration calorimetry measures the heat released or taken up as one component is titrated into another.

Test [1] deals with T2, PabB, synthase subunit of aminodeoxychorismate synthase (ADCS) from Escherichia coli, wild type (Escherichia coli, UniProt P05041 1-453).
T2 construct: PabB, synthase subunit of ADCS, E. coli; the gene was cloned into pET28a; Form used for SEC, ITC and kinetics; TEV cleavage is told only of the proteins used for crystallization; also called wt PabB; ADCS synthase subunit; source: E. coli BL21-Gold (DE3), purified (Ni-IMAC, preparative gel filtration)
T2 sequence: T1 sequence with F210Y
Described as above. The note with it: both partners purified.

B1: PabA, glutaminase subunit of aminodeoxychorismate synthase (ADCS) from Escherichia coli, wild type (enzyme)
chain: MILLIDNYDSFTWNLYQYFCELGADVLVKRNDALTLADIDALKPQKIVISPGPCTPDEAGISLDVIRHYAGRLPILGVCLGHQAMAQAFGGKVVRAAKVMHGKTSPITHNGEGVFRGLANPLTVTRYHSLVVEPDSLPACFDVTAWSETREIMGIRHRQWDLEGVQFHPESILSEQGHQLLANFLHR
notes: PabA, class I glutaminase subunit of ADCS, E. coli; the gene was cloned into pET28a; Form used for SEC, ITC and kinetics; TEV cleavage is told only of the proteins used for crystallization; The G5H-Tag stands between the TEV site and the start methionine of PabA; also called wt PabA; ADCS glutaminase subunit; source: E. coli BL21-Gold (DE3), purified (Ni-IMAC, preparative gel filtration)
For B1, the figures for the Kd (with PabB variant bY210F; in test [1]) were 530 nM and 160 nM, respectively.

One may read the Kd as the equilibrium constant for the complex coming apart.
